Results taken from patent publication US20260240998A1 (JICHI MEDICAL UNIVERSITY, published 2026).

Biological target: T1, B-cell maturation antigen (BCMA) (human, UniProt Q02223 1-184)
T1 sequence (looked up): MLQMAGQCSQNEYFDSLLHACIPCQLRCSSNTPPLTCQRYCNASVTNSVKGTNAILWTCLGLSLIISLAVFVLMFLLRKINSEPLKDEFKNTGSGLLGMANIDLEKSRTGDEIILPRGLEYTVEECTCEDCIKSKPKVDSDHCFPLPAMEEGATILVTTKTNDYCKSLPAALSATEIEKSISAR
Assay: cell-based or functional assay

luminescence intensity ratio of the U266 co-culture group to the control group (transduced cells only): 62.8 times
B1: BCMA-CAR (L20H), LH construct derived from anti-BCMA antibody 1 with a 20 amino acid linker (other)
chain: DIVLTQSPASLAVSLGQRATISCRASKSVSTSGYSYMHWYQQKPGQPPRLLIYLASNLESGVPARFSGSGSGTDFTLNIHPVEEEDAATYYCQHSRELPFTFGSGTKLEIKGGGGSGGGGSGGGGSGGGGSEVQLQQSGPELVKPGASVKMSCKASGYTFTNYIIHWVKQKPGQGLEWIGYIIPYNDGSKYNEKFKGKATLTSDKSSSTAYMELSSLTSEDSAVYYCARLTFSYDSYAMDYWGQGTSVTVSSATGAAAIEVMYPPPYLDNEKSNGTIIHVKGKHLCPSPLFPGPSKPFWVLVVVGGVLACYSLLVTVAFIIFWVRSKRSRLLHSDYMNMTPRRPGPTRKHYQPYAPPRDFAAYRSRVKFSRSADAPAYQQGQNQLYNELNLGRREEYDVLDKRRGRDPEMGGKPRRKNPQEGLYNELQKDKMAEAYSEIGMKGERRRGKGHDGLYQGLSTATKDTYDALHMQALPPR
